Results on one variant are retold here after publication PMC11714219.

The labels stand for the following.
B1: Estrogen receptor alpha, full length, ECFP-tagged, as in the ER βα FL biosensors with the linker [not stated] / Estrogen receptor beta (ER β), full length, mNeonGreen-tagged, as in the ER βα FL FRET biosensor [not stated] (parent)
chain 1: MTMTLHTKASGMALLHQIQGNELEPLNRPQLKIPLERPLGEVYLDSSKPAVYNYPEGAAYEFNAAAAANAQVYGQTGLPYGPGSEAAAFGSNGLGGFPPLNSVSPSPLMLLHPPPQLSPFLQPHGQQVPYYLENEPSGYTVREAGPPAFYRPNSDNRRQGGRERLASTNDKGSMAMESAKETRYCAVCNDYASGYHYGVWSCEGCKAFFKRSIQGHNDYMCPATNQCTIDKNRRKSCQACRLRKCYEVGMMKGGIRKDRRGGRMLKHKRQRDDGEGRGEVGSAGDMRAANLWPSPLMIKRSKKNSLALSLTADQMVSALLDAEPPILYSEYDPTRPFSEASMMGLLTNLADRELVHMINWAKRVPGFVDLTLHDQVHLLECAWLEILMIGLVWRSMEHPGKLLFAPNLLLDRNQGKCVEGMVEIFDMLLATSSRFRMMNLQGEEFVCLKSIILLNSGVYTFLSSTLKSLEEKDHIHRVLDKITDTLIHLMAKAGLTLQQQHQRLAQLLLILSHIRHMSNKGMEHLYSMKCKNVVPLYDLLLEMLDAHRLHAPTSRGGASVEETDQSHLATAGSTSSHSLQKYYITGEAEGFPATV
chain 2: MDIKNSPSSLNSPSSYNCSQSILPLEHGSIYIPSSYVDSHHEYPAMTFYSPAVMNYSIPSNVTNLEGGPGRQTTSPNVLWPTPGHLSPLVVHRQLSHLYAEPQKSPWCEARSLEHTLPVNRETLKRKVSGNRCASPVTGPGSKRDAHFCAVCSDYASGYHYGVWSCEGCKAFFKRSIQGHNDYICPATNQCTIDKNRRKSCQACRLRKCYEVGMVKCGSRRERCGYRLVRRQRSADEQLHCAGKAKRSGGHAPRVRELLLDALSPEQLVLTLLEAEPPHVLISRPSAPFTEASMMMSLTKLADKELVHMISWAKKIPGFVELSLFDQVRLLESCWMEVLMMGLMWRSIDHPGKLIFAPDLVLDRDEGKCVEGILEIFDMLLATTSRFRELKLQHKEYLCVKAMILLNSSMYPLVTATQDADSSRKLAHLLNAVTDALVWVIAKSGISSQQQSMRLANLLMLLSHVRHASNKGMEHLLNMKCKNVVPVYDLLLEMLNAHVLRGCKSSITGSECSPAEDSKSKEGSQNPQSQ

The variants in this assay derive from B1. Put plainly: live-cell FRET biosensor imaging (ER βα heterodimerization, FRET/ECFP emission ratio). Particulars: with Estrogen receptor beta (ER β), 1 µM 17β-estradiol, value read at the end of the time course (30 min after E2), α mutant n = 12, WT n = 24, read off a plot, scale: R/R0.
In the case of chain 1 L507R, the response is 1.07.
